The source of these data is the DeepSol protein solubility set.

A short description of this data set: soluble on expression in E. coli; label from the status in PepcDB or PDB records.
Turning to “MIEIKHLKTLQALRNSGSLAAAAAVLHQTQSALSHQFSDLEQRLGFRLFVRKSQPLRFTPQGEVLLQLANQVLPQISRALQACNEPQQTRLRIAIECHSCIQWLTPALENFRASWPQVEMDFTSGVTFDPQPALQQGELDLVMTSDILPRSGLHYSPMFDFEVRLVLAPDHPLASKTQITPEDLASETLLIYPVQRSRLDVWRHFLQPAGISPLLKSVDNTLLLIQMVAARMGIAALPHWVVESVERQGLVVTKTLGDGLWSRLYAAVRDGDQRQAVTEAFIRSTRDHACDHLPFVRSAERPIFDAPTAKPGSQPRL”, the “soluble on expression in E. coli” value is on record as “not soluble”.
For “MARAIAIDAPLSAGIRRTKKSPIKRASVGGVKKRFSTGTAGPSRRPTAQPRRQSGGIRTVDRSIPANENREVRINLSNLAHTVHSGDLRQLFAEFKIRNVSVNFNEHGKPVGTGDVTLPKRHADRLIQKFAGVSLDGKEIKFAIIDSANIANRVKFPEAPRRAPSNGRPAQRAPKRQNVKSGKPTGGAGAQKKLKAKKPKREAQPKKTLEELDAELDVYMSKA”, the “soluble on expression in E. coli” value is listed as “not soluble”.
With “MNLPEVSEKLIEQLNHGSTKAFDKIYHTYYLYLCAIAVYYVHDKRVAGEIVNDVFVSFWQNRHHITYPALPYLRRAIQNASISYLRSSAFNERIMTEQMEEIWAFLENHILSSDNPLQALESSEMNEIILRKVEELPAKCRAVFKASLYEGKSYSEIAEEQNINVATVRVQMKIALTKLRESLGTPYMIAILMFL”, the “soluble on expression in E. coli” value is given as “not soluble”.
Consider “MGSDKIHHHHHHMNEKEYEERLRIETIDIQHLYNAFSHYNRYEPTPYAALEELCAVYPFDYTDTVIDFGCGKGRLNFYLHDRFDCSVIGVEMNGQFYEDALMNQVTYMKKMKRRRGSIRFEHTYAEAYPIPDDVTKCYFFNPFSVQIFMKVVDQILASVERHPRPVDLILYYPADEYRYYLENQTIFEQVEEVRLKELFEKNHDERFVIYRVNLSQEVPKRV”, for which the “soluble on expression in E. coli” value is on record as “not soluble”.
The entry for “GHMTDEDSEANALADPDNPPLSAEQLASAPRMPRIKIIRRALKLTQEEFSARYHIPLGTLRDWEQGRSEPDQPARAYLKIIAVDPEGTAAALRKGATGS” is “soluble”.
The entry for “MSLQNPFVPQLVYIEPRALEYPLGQELQDKFENMGIEIRETTSHNQVRNIPGKNHLQQYRNAKSTLVIGVRKTLKFDSSKPSAEYAIPFATGCMGHCHYCYLQTTMGSKPYIRTYVNVEEILDQADKYMKERAPEFTRFEASCTSDIVGIDHLTHTLKRAIEHFGQSDLGKLRFVTKFHHVDHLLDAKHNGKTRFRFSINADYVIKNFEPGTSPLDKRIEAAVKVAKAGYPLGFIVAPIYIHEGWEEGYRHLFEKLDAALPQDVRHDITFELIQHRFTKPAKRVIEKNYPKTKLELDEEKRRYKWGRYGIGKYIYQKDEEHALREALESYIDTFFPNAKIEYFTEGHHHHHH” is “soluble”; for “MGSDKIHHHHHHVEASYAQRLRQEKGYAYADNCNTKTSLSIKMSMVLLTPTVSSNFEKDSLIYMAKKIHFISNSIVKEINNSDNVSILVLDKEEIISLFKANGILLFRGFDVDVDIFKEFTNLLSIDFINYAGGAFSRRVINGDQTVLSVNDFKSEIKLHGEMYYQKNIPLMLWFFCANPPLEDGETTVCDGRQFFHEISSSTKELFRQKNLKFTVRMSKEDWQKKYKTDDVNQLKEICRNNNTHLKIFDDRSIMLEYISPAIIPSRCGNYQVFINSLLPTKQLSPNILKFEDDSDIPEEVVSELNEIAEKITTEISWRKGDILMIDNTRILHGRRSFADDQRDIYIRLCSPAFSF” it is “not soluble”.
“MGSDKIHHHHHHMHVIVKNRYTQEIIHFFLENCRTESLRRSSIYAADFLYGKDQGFFIELRERISNYLDRNVDRISIEIASETGKPFKYIREEILQTIREIKSIRIPEDLHEFVKPGVSALNYNCNDPVLSLFVPLFATILQGSPVLVFANPYNFVSAHIIISMLSEIGLPEGVVNVIPFKPNFNYAYLYGENFSYFQDTYDGLGINRIIQSERHKPATVLWGDIDPDSAVSEFTKRLVRMPFSNEQLLVVDRRMFEYVLNRLKEELSRIVVGDPADGATDLGPVTKDEDLMEALSIVGKYRVERLLAMFRGVEGNLMKPAIILTDDVVKDPFVHAPLVYLVNSASVEDAVNLINEVEADRCALFSDDSKLLKMLYGRTACKEISFNSYMYKDYLFKPFLVKRKILM”: the “soluble on expression in E. coli” value is “not soluble”.
On to “VTTSSDPSSPVPQEDLDAVAAQLGREPRGVLEIAYRSPDGTPGVVKTAPKLPDGTPFPTLYYLTDPRLTAEASRQESAGVMREMTERLGQDPELAAAYLRAHESYLAERDAIEPLGTDFTGGGMPERVKCLHVLMAHSLAKGPGVNPLGDESVALAASAAGGKLRGTAIPADWPGIDDVESPEQ”, for which the “soluble on expression in E. coli” value is reported as “not soluble”.
For the sequence “MGSANGKTLGEVWKRELNLLDKRQFELYKRTDIVEVDRDTARRHLAEGKVDTGVAVSRGTAKLRWFHERGYVKLEGRVIDLGCGRGGWCYYAAAQKEVSGVKGFTLGRDGHEKPMNVQSLGWNIITFKDKTDIHRLEPVKCDTLLCDIGESSSSSVTEGERTVRVLDTVEKWLACGVDNFCVKVLAPYMPDVLEKLELLQRRFGGTVIRNPLSRNSTHEMYYVSGARSNVTFTVNQTSRLLMRRMRRPTGKVTLEADVILPIGTRSVGSSSHHHHHH”, the “soluble on expression in E. coli” value is on record as “soluble”.
The entry for “TATNHQGLPAVDSEILEMPPEKADGVVEGIDVNGPKAQLMLRYPDGKREQITLPEQAKLLALVKHVQSKGYPNERFELLTNFPRRKLSHLDYDITLQEAGLCPQETVFVQE” is “soluble”; for “MGSHHHHHHSSGLVPRGSHMTIGIDKISFFVPPYYIDMTALAEARNVDPGKFHIGIGQDQMAVNPISQDIVTFAANAAEAILTKEDKEAIDMVIVGTESSIDESKAAAVVLHRLMGIQPFARSFEIKEACYGATAGLQLAKNHVALHPDKKVLVVAADIAKYGLNSGGEPTQGAGAVAMLVASEPRILALKEDNVMLTQDIYDFWRPTGHPYPMVDGPLSNETYIQSFAQVWDEHKKRTGLDFADYDALAFHIPYTKMGKKALLAKISDQTEAEQERILARYEESIIYSRRVGNLYTGSLYLGLISLLENATTLTAGNQIGLFSYGSGAVAEFFTGELVAGYQNHLQKETHLALLDNRTELSIAEYEAMFAETLDTDIDQTLEDELKYSISAINNTVRSYRN” it is “soluble”; for “MSLGVSFNIMCPNSSIYSDEKSRVLVDKTKSGKVRPWREKKIANVDYFELLHILEFKKAERVKDCAEILEYKQNRETGERKLYRVWFCKSRLCPMCNWRRAMKHGIQSQKVVAEVIKQKPTVRWLFLTLTVKNVYDGEELNKSLSDMAQGFRRMMQYKKINKNLVGFMRATEVTINNKDNSYNQHMHVLVCVEPTYFKNTENYVNQKQWIQFWKKAMKLDYDPNVKVQMIRPKNKYKSDIQSAIDETAKYPVKDTDFMTDDEEKNLKRLSDLEEGLHRKRLISYGGLLKEIHKKLNLDDTEEGDLIHTDDDEKADEDGFSIIAMWNWERKNYFIKEEGHHHHHH” it is “soluble”.
“MSSPGGGTRFALVAGTTETAGRAGISAAGADPELMSVTPAADAELVTYGTPVRTDVTPVSPSGCPTPALVTRAAREVLGFDVTVVDGGLAEKTGAPTVSVGARPGKDIAEQDPVSTAHGAFAAARQFGQSLPADELYLGETIPGGTTTALGVLRALGEDGMVSSSLPENPTAQKSEVVAEGLQASSLEPGDAANEPKRAVRRMGDPVLATLAGLTAGAVESDTAVTLAGGSQCVAVAALVRHGGYEGPLGLATTSYVADDESADVRASVDRLDLDLTVTDPGFDRSDHVAMERFVAGEAKEGVGMGGALALADRAGIPMAEVRDRFAAIYDDLIGDAPTATAEERT”: the “soluble on expression in E. coli” value is on record as “not soluble”.
Turning to “MSYPMTPVKRPTISHGIQASDGIIKRPIEGNKKRLSAPIKDKPEHRIAPEEITNAPTTSRLRRAPEFDVVVIMKTTKKDRKKIIQTPRRRSIKLANVPMTPKTAPIRRHSTGGNAAMSTPKRRKSFGSLAPVRQHRVETRKVVRNLMAVRPPLCF”, the “soluble on expression in E. coli” value is on record as “soluble”.
As for “PVLIVTPLEDQQVFVGDRVEMAVEVSEEGAQVMWMKNGVELTREDSFKARYRFKKDGKRHILIFSDVVQEDRGRYQVITNGGQCEAELIVEEKQ”, the “soluble on expression in E. coli” value is “soluble”.
As for “MNNIDQLYTETKSMLSHIQNTPESDELLKQIEDFVATRSELIQEISLPLSEEERKQMKLILTWDQLIVKEMERLKQSIATELQQMKRKRVMHTTYLNPYNNITIDGTYYDKRKLEHHHHHH”, the “soluble on expression in E. coli” value is given as “soluble”.
